Source: patent US20200254071A1, “COMPOSITIONS AND METHODS FOR THROMBOEMBOLISM DISSOLUTION” (priority 2016, published 2020)

Legend:
[1] = system: thrombus or embolus in cats with ATE; details: cited from earlier work
[2] = system: thrombus or embolus in cats; details: cited from earlier work
blood clots = test: thrombolytic activity of the single agents, inventor's private research study; assay type: in vivo; details: single agent
Text: However, both agents can be dissolved in stomach acids, rendering certain dosage forms nearly useless as thrombolytic agents. This may explain why the potency of previous oral thrombolytics is decreased in comparison to injected thrombolytic agents. Enteric coatings reduce the active ingredients' rate of digestion in stomach acids, leading to enhanced efficacy of the active ingredient(s).

[3] = system: fibrinolytic activity in the plasma; test: oral administration of nattokinase: fibrinolytic activity in the plasma; assay type: in vivo
Text: There are no known studies that examine the efficacy of nattokinase as a thrombolytic agent in cats.

[4] = in vivo
Experimental: To ensure the efficacy of these two thrombolytic agents, an enteric coating is appropriate for some orally administered embodiments. The enteric coating allows the nattokinase and rutin bioflavonoid to travel through the acidic environment of the stomach without being dissolved. Nattokinase and rutin can then be absorbed into the bloodstream or circulation via the small intestine. Once absorbed, nattokinase remains active in the bloodstream for approximately 12 hours. In one embodiment, the enteric coating is composed of methacrylic acid copolymer and triethyl citrate. Additional ingredients may include, for example, arabinoglactan, microcrystalline cellulose, maltodextrin, stearic acid, croscarmellose sodium, silicon dioxide. During this clinical trial, participants were not on any other thrombolytic or fibrinolytic (blood thinning) agents.

[5] = system: artificially induced thrombosis; details: dogs, capsules orally; cited from earlier work
[6] = purified form; cited from earlier work

streptokinase: veterinary drug with the potential to dissolve a thrombus or embolus
cats with pulses restored ([1]; fraction of 46 cats): about half | cats with motor function returned to their limbs ([1]; within 24 hours): 30%

tPA: tissue-plasminogen activator, veterinary drug with the potential to dissolve a thrombus or embolus
fatal complications due to metabolic acidosis and hyperkalemia ([2]; cats with ATE): 70% | cats with perfusion restored to their limbs ([2]; fraction of cats given the drug): about two-thirds

B1: nattokinase: naturally occurring proteolytic enzyme derived from natto, soybeans fermented with Bacillus subtilis natto (protein, UniProt P35835 107-381, looked up)
Subtilisin NAT: AQSVPYGISQIKAPALHSQGYTGSNVKVAVIDSGIDSSHPDLNVRGGASFVPSETNPYQDGSSHGTHVAGTIAALNNSIGVLGVAPSASLYAVKVLDSTGSGQYSWIINGIEWAISNNMDVINMSLGGPTGSTALKTVVDKAVSSGIVVAAAAGNEGSSGSTSTVGYPAKYPSTIAVGAVNSSNQRASFSSVGSELDVMAPGVSIQSTLPGGTYGAYNGTSMATPHVAGAAALILSKHPTWTNAQVRDRLESTATYLGNSFYYGKGLINVQAAAQ
thrombolytic activity (blood clots): demonstrated thrombolytic activity | fibrinolytic activity in the plasma and production of tissue plasminogen activator [3]: mild and frequent enhancement | time active in the bloodstream [4]: approximately 12 hours | lysis of the thrombi by angiography [5]: lysis of the thrombi was observed | optimum pH of enzyme [6]: 7 | optimum temperature of enzyme [6]: 37 °C
